Data as given in FireProtDB (doi:10.1074/jbc.m705677200).

Conditions: Helicobacter pylori (strain ATCC 700392 / 26695), 25.2 °C, Urea, whole UniProt chain shown
[1] = pH 2, CD, Sodium phosphate 23 mM
[2] = pH 2, Fluorescence, Sodium phosphate 23 mM
[3] = pH 5, Fluorescence, Sodium acetate 16 mM

B1: Flavodoxin wild type, O25776 (protein)
chain: MGKIGIFFGTDSGNAEAIAEKISKAIGNAEVVDVAKASKEQFNSFTKVILVAPTAGAGDLQTDWEDFLGTLEASDFATKTIGLVGLGDQDTYSETFAEGIFHIYEKAKAGKVVGQTPTDGYHFEASKAVEGGKFVGLVIDEDNQDDLTDERISKWVEQVKGSFA
With B1 the denaturant m value [1] was 1.28 kcal/mol/M, the “denaturant midpoint (higher = more stable)” value (“denaturant midpoint” below) [1] was 0.89 M and the unfolding free energy [1] was 1.14 kcal/mol. For the same protein, the denaturant m value [2] was 1.35 kcal/mol/M, the “denaturant midpoint” value [2] was 0.84 M and the unfolding free energy [2] was 1.13 kcal/mol. The denaturant m value (pH 5, CD, Sodium acetate 16 mM) was 2.24 kcal/mol/M, the “denaturant midpoint” value (pH 5, CD, Sodium acetate 16 mM) was 4.1 M and the unfolding free energy (pH 5, CD, Sodium acetate 16 mM) was 9.2 kcal/mol. For the same protein, the denaturant m value [3] was 2.32 kcal/mol/M, the “denaturant midpoint” value [3] was 4.04 M and the unfolding free energy [3] was 9.37 kcal/mol. The denaturant m value (pH 7, CD, MOPS 30 mM) was 2.11 kcal/mol/M, the “denaturant midpoint” value (pH 7, CD, MOPS 30 mM) was 2.94 M and the unfolding free energy (pH 7, CD, MOPS 30 mM) was 6.2 kcal/mol. For the same protein, the denaturant m value (pH 7, Fluorescence, MOPS 30 mM) was 2.18 kcal/mol/M, the “denaturant midpoint” value (pH 7, Fluorescence, MOPS 30 mM) was 3.01 M and the unfolding free energy (pH 7, Fluorescence, MOPS 30 mM) was 6.56 kcal/mol. For the same protein, the denaturant m value (pH 9, CD, CHES 35 mM) was 2.19 kcal/mol/M, the “denaturant midpoint” value (pH 9, CD, CHES 35 mM) was 2.16 M and the unfolding free energy (pH 9, CD, CHES 35 mM) was 4.73 kcal/mol. The denaturant m value (pH 9, Fluorescence, CHES 35 mM) was 2.03 kcal/mol/M, the “denaturant midpoint” value (pH 9, Fluorescence, CHES 35 mM) was 2.21 M and the unfolding free energy (pH 9, Fluorescence, CHES 35 mM) was 4.5 kcal/mol.
